Molecular target: ClpXP (ClpX ΔN-ter hexamer with ClpP tetradecamer) (UniProt P0A6H1)

Substance | KM of ClpXP-mediated proteolysis (Michaelis-Menten analysis, loss of GFP fluorescence; 0.3 µM ClpX6, 0.9 µM ClpP14, 30 °C)
GFP-UCHL5 (UCH domain, residues 1-240, ssrA-tagged) (from UniProt Q9Y5K5 1-240) | 1.85 µM
GFP-BAP1 (UCH domain, residues 1-238, ssrA-tagged) (from UniProt Q92560 1-238) | 0.64 µM
GFP-UCHL1 (ssrA-tagged) | 3.67 µM

More lines, now with the values ahead:

KM of ClpXP-mediated proteolysis (Michaelis-Menten analysis, loss of GFP fluorescence; 0.3 µM ClpX6, 0.9 µM ClpP14, 30 °C) | Substance
4.47 µM | GFP-UCHL1_(I93M) (ssrA-tagged)
2.59 µM | GFP-UCHL3 (ssrA-tagged)
